# Measurements published in patent publication US20170022269A1.
# What was measured:
# [1] = target: Aβ(20-42) globulomer (human); experiment: dot blot densitometry, antibody 0.2 µg/ml; column Aβ(20-42) globulomer (reference)
# Aβ(1-42) fibrils (human) = Aβ(1-42) fibrils (human) (UniProt P05067); experiment: co-pelleting with Aβ(1-42) fibrils, SDS-PAGE, optical density of the heavy chain in pellet / (pellet + supernatant)
# Sequence of Aβ(1-42) fibrils (human) (P05067 672-713): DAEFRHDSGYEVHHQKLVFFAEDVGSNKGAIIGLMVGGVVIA
# Sequence of Aβ(20-42) globulomer (human) (peptide, as listed by the source): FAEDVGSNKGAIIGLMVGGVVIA
substance,measurement,setting,value
"commercially available antibody 6E10 (Signet, Cat. no. 9320)",relation between recognition of Aβ(20-42) globulomer and the respective Aβ form,[1],1
same,antibody bound to fibrils [%],Aβ(1-42) fibrils (human),98%
